According to patent US20150087584A1:

Target: Helicoverpa armigera gut proteases (HGP) (Helicoverpa armigera)
Test: cell-based or functional assay

Sequence of inhibitory repeat domain IRD-7 of Capsicum annuum Pin-II proteinase inhibitors (CanPIs) (O49146 other isoform, or with tags, fused parts or gaps): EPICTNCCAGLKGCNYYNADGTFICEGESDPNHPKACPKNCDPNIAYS

Substance: inhibitory repeat domain IRD-7 of Capsicum annuum Pin-II proteinase inhibitors (CanPIs) (from UniProt O49146 152-198)
- HGPI activity of the IRD alone at its IC50 concentration: 49%
- inhibition of HGP activity (BApNA and Azocasein substrates): 40 to 45%
